In the DeepSol protein solubility set:

Assay: soluble on expression in E. coli; label from the status in PepcDB or PDB records

Row | Sequence | soluble on expression in E. coli
1 | CGIVGAIAQRDVAEILLEGLRRLEYRGYDSAGLAVVDAEGHMTRLRRLGKVQMLAQAAEEHPLHGGTGIAHTRWATHGEPSEVNAHPHVSEHIVVVHNGIIENHEPLREELKARGYTFVSETDTEVIAHLVNWELKQGGTLREAVLRAIPQLRGAYGTVIMDSRHPDTLLAARSGSPLVIGLGMGENFIASDQLALLPVTRRFIFLEEGDIAEITRRSVNIFDKTGAEVKRQDIESNLQYDAGDKGIYRHYMQKEIYEQPNAIKNTLTGRISHGQVDLSELGPNADELLSKVEHIQILACGTSYNSGMVSRYWFESLAGIPCDVEIASEFRYRKSAVRRNSLMITLSQSGETADTLAGLRLSKELGYLGSLAICNVPGSSLVRESDLALMTNAGTEIGVASTKAFTTQLTVLLMLVAKLSKLKGLDASIEHDIVHGLQALPSRIEQMLSQDKRIEALAEDFSDKHHALFLGRGDQYPIALEGALKLKEISYIHAEAYAAGELKHGPLALIDADMPVIVVAPNNELLEKLKSNIEEVRARGGQLYVFADQDAGFVSSDNMHIIEMPHVEEVIAPIFYTVPLQLLAYHVALIKGTDVDQPRNLAKSVTVE | soluble
2 | MLIDSFEDLDGVIQEIKFRLTRAPMEMGRERECCVLSTSPGCRRAASFPFVGDSSIIQASSLKVRSKSESEALNKMRLTQMNLETVRKRLSESTIKEKDEGSDYQSHSSSSSECEVDDLELFCAGPLELKEEEKLRKSVRFADDCGHELYMVRVATEPSNCPPKLSPSVLRRYRGESFEEEEMTTREPAPVWNLMFKQPAADYVRFRENMETNKVSLENVILNNEAYKVMGTIKVGNIAFEKSVFVRYTMNGWISYMDKAAIYQPSTSKIQDTFKFDLDLPSSVEKIHQIEFCICFKANGTEYWDSNSGTNYVLHCEQQQHPAVPQQRRASLFGSSKYLDRDDAYKLDYNDWGKFASWKALSTDGPYW | soluble
3 | MLERRDKEITDLKRRVANMVVVGKISHVDHKNARYRVKTGNLVSDWIPDTQARAGKTRSYEGRDVGEQVVVVSSSGDLSQGVIVGSIHTDANQAADKGNLHKTLYPDGTTIEYDDEQNSYALHLTSGGKFSLTISDGVSIKGDGKKLELQAAEGIKIISQGDLSLSAEKNIALKAGGSVSLHSDDGIALHSSEGVSIHSSDLKHNGTNIGNSHVHGGVSPGGSMTGGPN | soluble
4 | MGSDKIHHHHHHMAGEDRDMETETETVCPGNTAGRFAAGEDPAKRDQILAGAWRVFKLKGFDAASMNDITREAGVSKGTIYVYFSNKEDLFAALVDHHRQEFATSMRNILAGTEEVRKGLEQFGKAFANKMICSDMIPAMRSVIGVIDRMPKLAQRFFIAAPNNVRTVLQDFIEHHIALGHLKVDDVELAARQYIELSTGTFFKLRLFGEIDGPVPEEELDRVIASAIKVFMAAYGTDKV | not soluble
5 | MLRKISLLLSICFLLHQNIAYGEDNQQSIYEKRMALYKETEQSSGIPWYYLAAMDQYERNIRSVRKDIPKKPDAIISLYFKPEIWAGPVNGNDTLPHTIALFGGLGLDGDKDGFANANNDRDLLHTAATILKKQGTSEERIKIMLWEYYRRAKTVDLITEYAQIYKHYGRINLEGNAFPLPIRSDHSYRSTFGAGRSFGGRRVHEGTDIFAGYGVPVRSTCYGIIETKGWNRLGGWRIGIRDLHNNYHYYAHLGGFSKEIQLGQIVEPGKVIGFVGSTGYGPPGTAGKFPPHLHFGMYKDNGYTEWAFDPYMHLSLWERKERANTKR | not soluble
6 | MAEETPPIVELAEWFQTPPGQYVLAWEQAQFDEAVADIFGYYAWQVGLAEPNLLRANRMPFKAWVGAGVPPPELAQGWQACVAAAPEALPFESQSVDLLVLPHAFECAEAPHLVLREVERVLVPEGRVVISGFNPWSLWGARNLMPGMEAWLPLPLSAQVALPRLKDWFKLLSFEVERGRFGCYAPACRTDKWLRRWRFMERYGQRWWGLGGAVYVVTATKKVAAMRLIGPAWKTRRKRAQAASVVVNRQADDPGRLEHHHHHH | not soluble
7 | MSDKPHRIVIVGGGAGGLELATALGNKYGKSDAVRVTLVDRSRTHIWKPLLHAIAAGSLRRSQHELNYLAQAHWHGFHYRLGEMNGLDRARKVIKLAPVIDDEGREINPESELAYDTLVIAIGSVTNDFGTPGARDHAVPLETPEQASRFNKRMVNACLRAQHQHAPIEPGQLHVAIIGAGATGTELAAELHHTAREIIAYGLDKIDPEHDLKIVLIEAAPRILPALPPRISDATLKLLLDLGVEVRTGARVAEVLDHAVRLADGEVIPSELVVWAAGVRAPDFLEGIDGLDTNRINQLVVRPTLQTTRDDNVFGMGDCAACAIPGYENGVPPRAQAAHQEAEFMLEQIEKRLKGEPLGEFRYRDLGSLVSLGKYSAVGNLMGSLVGKSFLIEGYFARFMYRSLYKMHEAALYGRGRTLLSVLSGSTRPTPTVKLHLEHHHHHH | not soluble
8 | MGSDKIHHHHHHMKPGFVDPVFDAQAVFRAALLATAYPGRVVPLDRTLTAPRPFSSATAALCLSLMDFETPAWLDNSLDCGELTAWLRFHCSLPLTETAGEARFAIVSDPANLPRLCELHPGDAEYPDRSTTLIIQVPSFTDGPTTTWTGPGVNGSIPVGIAGLPFWFWADWDLNSELYPRGIDVVFTSGNAVIGLPRTIKVEA | not soluble
9 | MGSDKIHHHHHHMEEVINGILIREVETKNIMTKSSLPVGGYSVNPYVGCTHACKYCYASFMKRFTGHKEEWGTFLDVKHWPEIKNPKKYAGQRVVIGSVTDGYNPQEEQFGNTRKLLEQLIGSDADILICTKSDLVVRDIDLLKKLGRVTVSWSINTLDENFKNDMDSASSIERRISAMKQVYESGIRTVCFVSPVFPGITDFEAIFERVKDQCDLFWLENLNLRGGFKKTIMDYITGQYPDLVPLYDEIYNKHNRSYFEALEVKAEKMAKKYDCAFVDNEMPYGRVPQGHPVIVDYFYHEEIRGTENTGKRNR | not soluble
10 | MPPGKKGQASSLGQNKVHFHKYNLILLPPDTISSHSSEERGLLWKHRLSQARTSYSSHVRILVRIRKMWEKTPHMRIGNIFFKKREL | not soluble
11 | MSLVEKQSALESKARSWLIERGVEIDDIAELVLFLQQKYHPGLELDICRQNVEHVLRKREVQNAVLTGIQLDVMAEKGELVQPLQNIISADEGLYGVDEILALSIVNVYGSIGFTNYGYIDKVKPGILAKLNEHDGIAVHTFLDDIVGAIAAAAASRLAHSYHDDIVNEGGSHHHHHH | soluble
12 | MGSDKIHHHHHHMATVAFHTLGCKVNHYETEAIWQLFKEAGYERRDFEQTADVYVINTCTVTNTGDKKSRQVIRRAIRQNPDGVICVTGCYAQTSPAEIMAIPGVDIVVGTQDREKMLGYIDQYREERQPINGVSNIMKARVYEELDVPAFTDRTRASLKIQEGCNNFCTFCIIPWARGLLRSRDPEEVIKQAQQLVDAGYKEIVLTGIHTGGYGEDMKDYNFAKLLSELDTRVEGVKRIRISSIEASQITDEVIEVLDRSDKIVNHLHIPIQSGSNTVLKRMRRKYTMEFFADRLNKLKKALPGLAVTSDVIVGFPGETEEEFMETYNFIKEHKFSELHVFPYSKRTGTPAARMEDQVDENVKNERVHRLIALSDQLAKEYASQYENEVLEIIPEEAFKETEEENMFVGYTDNYMKVVFKGTEDMIGKIVKVKILKAGYPYNEGQFVRVVEDEITEHMRLSS | not soluble
13 | MSKIADDQNFNDEEENFAKLFKKELEKEETLEKGTIKEGLVVSINENDGYAMVSVGGKTEGRLALNEITDEKGQLLYQKNDPIIVHVSEKGEHPSVSYKKAISQQKIQAKIEELGENYENAIIEGKIVGKNKGGYIVESQGVEYFLSRSHSSLKNDANHIGKRVKACIIRVDKENHSINISRKRFFEVNDKRQLEVSKELLEATEPVLGVVRQITPFGIFVEAKGIEGLVHYSEISHKGPVNPEKYYKEGDEVYVKAIAYDAEKRRLSLSIKATIEDPWEEIQDKLKPGYAIKVVVSNIEHYGVFVDIGNDIEGFLHVSEISWDKNVSHPNNYLSVGQEIDVKIIDIDPKNRRLRVSLKQLTNRPFDVFESKHQVGDVLEGKVATLTDFGAFLNLGGVDGLLHNHDAFWDKDKKCKDHYKIGDVIKVKILKINKKDKKISLSAKHLVTSPTEEFAQKHKTDSVIQGKVVSIKDFGVFINADGIDVLIKNEDLNPLKKDEIKIGQEITCVVVAIEKSNNKVRASVHRLERKKEKEELQAFNTSDDKMTLGDILKEKLLEHHHHHH | soluble
14 | KYRHEYYQKPEEVVVTVFAKGIPKQNVNIDFGEQILSVVIEVPGEDAYYLQPRLFGKIIPDKCKYEVLSTKIEICLAKADIITWASLEHG | soluble
